Test results as given in patent publication US20240084003A1 (SIMCERE ZAIMING PHARMACEUTICAL, published 2024).

T1: human CD22 domain1-4-His (human, UniProt P20273 20-425)
T1 construct: also called hCD22 domain1-4-His; not shown: His tag
T1 sequence: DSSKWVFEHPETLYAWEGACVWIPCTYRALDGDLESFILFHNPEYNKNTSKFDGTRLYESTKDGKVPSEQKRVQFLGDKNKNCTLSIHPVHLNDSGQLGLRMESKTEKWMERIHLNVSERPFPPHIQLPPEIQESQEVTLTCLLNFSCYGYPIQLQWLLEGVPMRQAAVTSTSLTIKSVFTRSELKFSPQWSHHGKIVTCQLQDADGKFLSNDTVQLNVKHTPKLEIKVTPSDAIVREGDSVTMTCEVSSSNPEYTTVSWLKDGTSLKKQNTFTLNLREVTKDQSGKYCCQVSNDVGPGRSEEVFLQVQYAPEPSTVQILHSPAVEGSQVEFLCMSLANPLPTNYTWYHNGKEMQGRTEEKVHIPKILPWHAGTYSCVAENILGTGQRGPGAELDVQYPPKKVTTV

T2: human CD22-ECD-His protein (human, UniProt P20273 20-687)
T2 construct: Recombinant, from HEK293E cells; also called hCD22-ECD-His; human CD22-His protein; not shown: His tag
T2 sequence: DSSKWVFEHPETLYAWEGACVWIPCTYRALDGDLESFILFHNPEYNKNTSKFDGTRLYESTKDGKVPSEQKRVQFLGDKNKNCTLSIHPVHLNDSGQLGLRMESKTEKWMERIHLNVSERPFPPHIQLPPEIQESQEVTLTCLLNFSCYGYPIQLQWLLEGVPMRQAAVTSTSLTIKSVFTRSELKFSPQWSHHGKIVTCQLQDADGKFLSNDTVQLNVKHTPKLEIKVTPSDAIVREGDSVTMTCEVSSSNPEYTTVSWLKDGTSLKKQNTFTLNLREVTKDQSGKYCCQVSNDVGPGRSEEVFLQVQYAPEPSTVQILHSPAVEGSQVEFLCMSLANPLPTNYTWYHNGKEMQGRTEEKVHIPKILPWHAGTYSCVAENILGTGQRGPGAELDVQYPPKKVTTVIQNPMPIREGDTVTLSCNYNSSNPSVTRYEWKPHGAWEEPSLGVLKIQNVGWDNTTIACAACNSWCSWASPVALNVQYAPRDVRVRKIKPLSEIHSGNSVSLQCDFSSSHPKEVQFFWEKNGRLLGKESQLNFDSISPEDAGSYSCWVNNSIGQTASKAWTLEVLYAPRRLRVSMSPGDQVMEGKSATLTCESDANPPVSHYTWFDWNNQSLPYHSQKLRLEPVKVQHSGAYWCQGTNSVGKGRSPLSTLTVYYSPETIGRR

T3: monkey CD22 (full length, on HEK293T cells) (monkey)
T3 construct: NCBI XP_014979161.2; also called HEK293T-monkey CD22; HEK293T cells overexpressing monkey CD22
T3 chain: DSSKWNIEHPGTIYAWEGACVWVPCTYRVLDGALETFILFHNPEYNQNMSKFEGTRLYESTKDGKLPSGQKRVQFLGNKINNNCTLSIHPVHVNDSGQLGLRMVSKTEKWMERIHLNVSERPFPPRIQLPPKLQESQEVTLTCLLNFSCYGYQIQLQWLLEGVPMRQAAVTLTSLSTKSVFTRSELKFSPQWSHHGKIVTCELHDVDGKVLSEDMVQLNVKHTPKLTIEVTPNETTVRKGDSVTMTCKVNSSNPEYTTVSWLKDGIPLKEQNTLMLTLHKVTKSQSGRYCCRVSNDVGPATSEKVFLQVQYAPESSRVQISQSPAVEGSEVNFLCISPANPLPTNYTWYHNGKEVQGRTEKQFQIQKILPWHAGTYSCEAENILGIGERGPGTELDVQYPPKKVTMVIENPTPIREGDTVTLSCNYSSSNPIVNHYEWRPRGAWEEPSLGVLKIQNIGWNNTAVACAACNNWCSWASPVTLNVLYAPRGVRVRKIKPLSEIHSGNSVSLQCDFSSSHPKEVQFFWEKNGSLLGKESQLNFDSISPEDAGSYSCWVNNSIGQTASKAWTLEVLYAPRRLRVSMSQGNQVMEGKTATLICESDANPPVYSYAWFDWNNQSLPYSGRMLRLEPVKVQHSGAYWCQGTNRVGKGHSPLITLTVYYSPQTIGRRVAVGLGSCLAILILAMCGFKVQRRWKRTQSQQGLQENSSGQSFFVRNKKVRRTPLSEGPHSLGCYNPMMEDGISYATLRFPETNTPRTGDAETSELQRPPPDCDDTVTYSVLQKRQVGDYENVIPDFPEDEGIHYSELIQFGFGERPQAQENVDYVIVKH

T4: monkey CD22 protein (ACROBiosystems, SI2-R52Ha) (monkey (rhesus monkey in paragraph 148), UniProt H9G1X2 18-686)
T4 construct: extracellular domain; also called monkey CD22-ECD; monkey CD22-ECD-His
T4 sequence: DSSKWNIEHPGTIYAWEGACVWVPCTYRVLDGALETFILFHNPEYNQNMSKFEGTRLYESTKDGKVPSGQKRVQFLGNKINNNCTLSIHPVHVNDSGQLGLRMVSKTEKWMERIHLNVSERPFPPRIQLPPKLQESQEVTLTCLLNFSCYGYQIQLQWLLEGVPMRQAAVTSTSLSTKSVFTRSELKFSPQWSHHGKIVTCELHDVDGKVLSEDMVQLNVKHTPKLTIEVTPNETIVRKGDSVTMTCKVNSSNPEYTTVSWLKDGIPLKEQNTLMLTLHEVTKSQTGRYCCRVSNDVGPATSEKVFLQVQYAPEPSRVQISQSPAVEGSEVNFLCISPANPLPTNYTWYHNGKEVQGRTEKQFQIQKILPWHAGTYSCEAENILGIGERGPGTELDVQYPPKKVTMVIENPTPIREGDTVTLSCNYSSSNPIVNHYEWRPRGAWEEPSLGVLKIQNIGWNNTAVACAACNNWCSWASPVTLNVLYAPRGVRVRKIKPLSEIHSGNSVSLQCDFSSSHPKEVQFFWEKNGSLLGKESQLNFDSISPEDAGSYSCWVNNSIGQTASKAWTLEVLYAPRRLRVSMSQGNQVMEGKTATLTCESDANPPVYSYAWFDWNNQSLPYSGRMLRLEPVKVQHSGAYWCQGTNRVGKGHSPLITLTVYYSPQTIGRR

T5: murine CD22 protein (ACROBiosystems, SI2-M52Ha) (murine, UniProt P35329 22-708)
T5 construct: extracellular domain; also called murine CD22-ECD; murine CD22-ECD-His
T5 sequence (looked up): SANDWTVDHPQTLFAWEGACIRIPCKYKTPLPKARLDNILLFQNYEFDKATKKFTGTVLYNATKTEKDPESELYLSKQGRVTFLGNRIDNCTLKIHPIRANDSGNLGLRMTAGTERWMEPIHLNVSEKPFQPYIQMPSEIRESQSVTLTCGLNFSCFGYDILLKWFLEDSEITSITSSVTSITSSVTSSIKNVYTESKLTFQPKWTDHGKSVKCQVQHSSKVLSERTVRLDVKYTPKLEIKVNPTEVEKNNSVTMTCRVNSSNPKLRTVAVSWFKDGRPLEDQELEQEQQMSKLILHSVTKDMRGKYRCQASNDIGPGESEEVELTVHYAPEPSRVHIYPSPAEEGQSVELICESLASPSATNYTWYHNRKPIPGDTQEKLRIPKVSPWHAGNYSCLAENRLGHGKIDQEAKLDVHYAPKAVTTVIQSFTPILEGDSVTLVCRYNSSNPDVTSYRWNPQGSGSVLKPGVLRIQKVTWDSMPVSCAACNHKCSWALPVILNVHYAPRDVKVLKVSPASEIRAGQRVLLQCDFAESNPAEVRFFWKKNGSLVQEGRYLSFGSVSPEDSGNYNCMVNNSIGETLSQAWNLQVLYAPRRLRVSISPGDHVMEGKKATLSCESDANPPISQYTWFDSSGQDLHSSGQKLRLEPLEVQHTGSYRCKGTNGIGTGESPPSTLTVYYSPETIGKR

B1: F2.180.16 (antibody, human IgG1, lambda, V domains shown)
VH: EVKLVESGGGLVLPGGSLKISCAASGFTFSDYYMYWIRQTPDKRLEWVAYISNTGYSTFYPDSVKGRFTVSRDNAKNTLYLQMSRLQSEDTAMYYCARHGILYAMDYWGQGTSVTVSS
VL: QPVLTQSSSASFSLGASAKLTCTLSSQYSTYTIGWYQQQPLKPPKYVMELKHDGSRHTGDGIPDRFSGSSSGADRYLSISNIQPEDEATYICGVGDTIKEQFMYVFGGGTKVTVLG
notes: Chimeric IgG1 lambda
B2: m971-hIgG1 (antibody, V domains shown)
VH: QVQLQQSGPGLVKPSQTLSLTCAISGDSVSSNSAAWNWIRQSPSRGLEWLGRTYYRSKWYNDYAVSVKSRITINPDTSKNQFSLQLNSVTPEDTAVYYCAREVTGDLEDAFDIWGQGTMVTVSS
VL: DIQMTQSPSSLSASVGDRVTITCRASQTIWSYLNWYQQRPGKAPNLLIYAASSLQSGVPSRFSGRGSGTDFTLTISSLQAEDFATYYCQQSYSIPQTFGQGTKLEIKR
notes: Control antibody; variable regions from US 8,591,889 B on human IgG1 constant regions
B3: F1.60.9 (antibody, human IgG1, kappa, V domains shown)
VH: QVQLKESGPGLVAPSQSLSITCTVSGLSLNNYGVSWVRQPPGKGLEWLGVIWGDGSTNYHSALISRLSISKDNSKSQVFLKLNSLHTDDTATYYCAINWGDYWGQGTTLIVSS
VL: DIKMTQSPSSMNASLGERVTITCKASQDINSYLSWFQQKPGKSPKILIYRANRLIDGVPSRFSGSGSGQDYSLTISSLEYEDMGIYYCLQYGVFPLTFGAGTKLELKR
notes: Chimeric IgG1 kappa

Tests used:
human CD22 domain1-4-His = molecular target: T1, human CD22 domain1-4-His; experiment: ELISA, plate coated with human CD22 domain1-4-His
[1] = molecular target: T2, human CD22-ECD-His protein; experiment: SPR (Biacore), antibody captured on Protein A chip, CD22-ECD-His in solution
In short: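 Antibody captured on Protein A chip, then human CD22-ECD-His injected for 240 s at 30 μL/min, 5 concentrations from 200 nM (1:1 dilution), dissociation up to 600 s, in HBS-EP+ at 25° C. Responses double-referenced; apparent KD and kinetic constants fitted to a Langmuir 1:1 model.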

[2] = molecular target: T3, monkey CD22 (full length, on HEK293T …); experiment: FACS, HEK293T-monkey CD22 cells (293T as parent cells)
Description: The required cells were scale-up cultured in a T-75 cell culture flask to the logarithmic growth phase. For the adherent cell CHO-K1, the medium was aspirated, the cells were washed 2 times with PBS buffer, and then digested with trypsin. After the digestion was terminated, the cells were washed 2 times with PBS buffer. For suspension cell Raji, the medium supernatant was directly centrifuged and discarded, and the cell pellet was washed 2 times with PBS. After counting the cells in the previous step, the cell pellet was resuspended with [PBS+2% (w/w) BSA] blocking solution to 2×10⁶ cells/ml, and added to a 96-well FACS reaction plate at 50 μl/well, and then the chimeric antibody test sample was added at 50 μl/well, and incubated on ice for 2 hours. The mixture was centrifuged and washed 3 times with PBS buffer, Alexa Flour 488-labeled secondary antibody (purchased from Invitrogen, catalog number: A-11013) was added at 50 μl/well, and incubated on ice for 1 hour. The obtained mixture was centrifuged and washed 5 times with PBS, and FACS (FACS Canto™, purchased from BD Company) was used for detection and result analysis. Data analysis was performed by software (CellQuest) to obtain the mean fluorescence density (MFI)of the cells. And then software (GraphPad Prism8) was used for analysis, data fitting, and EC50 value calculation. […] The same method was used to detect the binding of the chimeric antibodies to endogenous CD22-negative cell MoLT4 cells (purchased from ATCC, CRL-1582) and CHO-K1 cells.
HEK293T-monkey CD22 cells were subjected to FACS detection and data analysis according to the method in Example 5.2.

[3] = molecular target: T4, monkey CD22 protein (ACROBiosystems, …); experiment: ELISA, monkey CD22-ECD-His coated
Method: In order to detect the binding activity of CD22 human-murine chimeric antibodies to CD22 protein, the purified human CD22-ECD-His protein obtained in Example 2 was diluted with PBS to a final concentration of 2 μg/mL, and then added to 96-well ELISA plate at 100 μl/well. The plate was sealed with plastic film and incubated overnight at 4° C., the plate was washed 2 times with PBS the next day, and then a blocking solution [PBS+2% (w/w) BSA] was added for blocking at room temperature for 2 hours. […] After incubation at 37° C. for 2 hours, the plate was washed 3 times with PBS. HRP (horseradish peroxidase)-labeled secondary antibody (purchased from Sigma, catalog number: A0170) was added, and incubated at 37° C. for 2 hours, and the plate was washed 5 times with PBS. TMB substrate was added at 50 μl/well, and incubated at room temperature for 30 minutes, then a stop solution (1.0 N HCl) was added at 50 μl/well.
In order to detect the species cross-binding activity of the chimeric antibodies, an ELISA plate was coated with commercial murine CD22 protein (ACROBiosystems, catalog number: SI2-M52Ha) and monkey CD22 protein (ACROBiosystems, catalog number: SI2-R52Ha), respectively, and the ELISA detection was performed according to the method in Example 5.1.

[4] = molecular target: T5, murine CD22 protein (ACROBiosystems, …); experiment: ELISA, murine CD22-ECD-His coated
In short: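 Direct ELISA: chimeric antibody binding to CD22 coated at 2 μg/mL, with a 37° C, 2 h antibody step and HRP/TMB detection.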

Binder | binding result (human CD22 domain1-4-His) | Kd [1] [nM] | koff [1] [s⁻¹] | kon [1] [M⁻¹ s⁻¹] | binding result [2] | binding result [3] | binding result [4]
B1 | no binding | 18.4 | 0.000155 | 8450 |  |  | 
B2 |  |  |  |  | no binding (tested: 10 nM) | no binding (tested: 100 nM) | no binding (tested: 100 nM)
B3 | no binding | 0.254 | 7.64e-05 | 301000 |  |  | 
